This is an account of results in patent publication US6555322 (FIBROGEN, dated 2003).

A word on the Kd: it is the equilibrium constant for the complex coming apart. In general, IC50 refers to the point on the concentration scale where inhibition reaches its midpoint. Read a high IC50 as weaker potency.

Assay [1] concerns the target human low density lipoprotein receptor-related protein (LRP) / α2-macroglobulin receptor, CTGF receptor on … (human, UniProt Q07954 20-4544). As to the kind of experiment: cell-based or functional assay.
Assay [2] has as its target T1, CTGF receptor (LRP), cells not named.
T1 construct: whole, on cells; 'other cells examined'); also called cross-linked complex; 620 kDa protein
As to the kind of experiment: equilibrium binding of 125I-rhCTGF to other cells with a single class of sites.

Assay [3] concerns the target T2, murine low density lipoprotein receptor-related protein (LRP) / α2-macroglobulin receptor, CTGF receptor on … (murine, UniProt Q91ZX7 20-4545).
T2 construct: whole, on cells; they are fragments found by mass spectrometry, not the construct; In the cell the protein is cleaved into non-covalently joined α and β subunits (background statement); also called α2MR; LRP/α2MR
As to the kind of experiment: equilibrium binding of 125I-rhCTGF to cells (FIG. 2, BMS2), non-linear regression; low affinity site.

Assay [4] addresses high affinity binding site for CTGF on cells. As to the kind of experiment: equilibrium binding of 125I-rhCTGF to cells (FIG. 2, BMS2), non-linear regression; high affinity site.
In assay [5] the target is T1, CTGF receptor (LRP), cells not named. As to the kind of experiment: 200 pM iodinated CTGF with 0-6.5 nM unlabeled CTGF on cells, S-SMCC cross-linking, densitometry of the complex bands.
Assay [6] deals with T2, murine low density lipoprotein …. As to the kind of experiment: competition with 0.1 nM 125I-CTGF on BMS-2 cells.

T2 sequence (Q91ZX7 20-4545): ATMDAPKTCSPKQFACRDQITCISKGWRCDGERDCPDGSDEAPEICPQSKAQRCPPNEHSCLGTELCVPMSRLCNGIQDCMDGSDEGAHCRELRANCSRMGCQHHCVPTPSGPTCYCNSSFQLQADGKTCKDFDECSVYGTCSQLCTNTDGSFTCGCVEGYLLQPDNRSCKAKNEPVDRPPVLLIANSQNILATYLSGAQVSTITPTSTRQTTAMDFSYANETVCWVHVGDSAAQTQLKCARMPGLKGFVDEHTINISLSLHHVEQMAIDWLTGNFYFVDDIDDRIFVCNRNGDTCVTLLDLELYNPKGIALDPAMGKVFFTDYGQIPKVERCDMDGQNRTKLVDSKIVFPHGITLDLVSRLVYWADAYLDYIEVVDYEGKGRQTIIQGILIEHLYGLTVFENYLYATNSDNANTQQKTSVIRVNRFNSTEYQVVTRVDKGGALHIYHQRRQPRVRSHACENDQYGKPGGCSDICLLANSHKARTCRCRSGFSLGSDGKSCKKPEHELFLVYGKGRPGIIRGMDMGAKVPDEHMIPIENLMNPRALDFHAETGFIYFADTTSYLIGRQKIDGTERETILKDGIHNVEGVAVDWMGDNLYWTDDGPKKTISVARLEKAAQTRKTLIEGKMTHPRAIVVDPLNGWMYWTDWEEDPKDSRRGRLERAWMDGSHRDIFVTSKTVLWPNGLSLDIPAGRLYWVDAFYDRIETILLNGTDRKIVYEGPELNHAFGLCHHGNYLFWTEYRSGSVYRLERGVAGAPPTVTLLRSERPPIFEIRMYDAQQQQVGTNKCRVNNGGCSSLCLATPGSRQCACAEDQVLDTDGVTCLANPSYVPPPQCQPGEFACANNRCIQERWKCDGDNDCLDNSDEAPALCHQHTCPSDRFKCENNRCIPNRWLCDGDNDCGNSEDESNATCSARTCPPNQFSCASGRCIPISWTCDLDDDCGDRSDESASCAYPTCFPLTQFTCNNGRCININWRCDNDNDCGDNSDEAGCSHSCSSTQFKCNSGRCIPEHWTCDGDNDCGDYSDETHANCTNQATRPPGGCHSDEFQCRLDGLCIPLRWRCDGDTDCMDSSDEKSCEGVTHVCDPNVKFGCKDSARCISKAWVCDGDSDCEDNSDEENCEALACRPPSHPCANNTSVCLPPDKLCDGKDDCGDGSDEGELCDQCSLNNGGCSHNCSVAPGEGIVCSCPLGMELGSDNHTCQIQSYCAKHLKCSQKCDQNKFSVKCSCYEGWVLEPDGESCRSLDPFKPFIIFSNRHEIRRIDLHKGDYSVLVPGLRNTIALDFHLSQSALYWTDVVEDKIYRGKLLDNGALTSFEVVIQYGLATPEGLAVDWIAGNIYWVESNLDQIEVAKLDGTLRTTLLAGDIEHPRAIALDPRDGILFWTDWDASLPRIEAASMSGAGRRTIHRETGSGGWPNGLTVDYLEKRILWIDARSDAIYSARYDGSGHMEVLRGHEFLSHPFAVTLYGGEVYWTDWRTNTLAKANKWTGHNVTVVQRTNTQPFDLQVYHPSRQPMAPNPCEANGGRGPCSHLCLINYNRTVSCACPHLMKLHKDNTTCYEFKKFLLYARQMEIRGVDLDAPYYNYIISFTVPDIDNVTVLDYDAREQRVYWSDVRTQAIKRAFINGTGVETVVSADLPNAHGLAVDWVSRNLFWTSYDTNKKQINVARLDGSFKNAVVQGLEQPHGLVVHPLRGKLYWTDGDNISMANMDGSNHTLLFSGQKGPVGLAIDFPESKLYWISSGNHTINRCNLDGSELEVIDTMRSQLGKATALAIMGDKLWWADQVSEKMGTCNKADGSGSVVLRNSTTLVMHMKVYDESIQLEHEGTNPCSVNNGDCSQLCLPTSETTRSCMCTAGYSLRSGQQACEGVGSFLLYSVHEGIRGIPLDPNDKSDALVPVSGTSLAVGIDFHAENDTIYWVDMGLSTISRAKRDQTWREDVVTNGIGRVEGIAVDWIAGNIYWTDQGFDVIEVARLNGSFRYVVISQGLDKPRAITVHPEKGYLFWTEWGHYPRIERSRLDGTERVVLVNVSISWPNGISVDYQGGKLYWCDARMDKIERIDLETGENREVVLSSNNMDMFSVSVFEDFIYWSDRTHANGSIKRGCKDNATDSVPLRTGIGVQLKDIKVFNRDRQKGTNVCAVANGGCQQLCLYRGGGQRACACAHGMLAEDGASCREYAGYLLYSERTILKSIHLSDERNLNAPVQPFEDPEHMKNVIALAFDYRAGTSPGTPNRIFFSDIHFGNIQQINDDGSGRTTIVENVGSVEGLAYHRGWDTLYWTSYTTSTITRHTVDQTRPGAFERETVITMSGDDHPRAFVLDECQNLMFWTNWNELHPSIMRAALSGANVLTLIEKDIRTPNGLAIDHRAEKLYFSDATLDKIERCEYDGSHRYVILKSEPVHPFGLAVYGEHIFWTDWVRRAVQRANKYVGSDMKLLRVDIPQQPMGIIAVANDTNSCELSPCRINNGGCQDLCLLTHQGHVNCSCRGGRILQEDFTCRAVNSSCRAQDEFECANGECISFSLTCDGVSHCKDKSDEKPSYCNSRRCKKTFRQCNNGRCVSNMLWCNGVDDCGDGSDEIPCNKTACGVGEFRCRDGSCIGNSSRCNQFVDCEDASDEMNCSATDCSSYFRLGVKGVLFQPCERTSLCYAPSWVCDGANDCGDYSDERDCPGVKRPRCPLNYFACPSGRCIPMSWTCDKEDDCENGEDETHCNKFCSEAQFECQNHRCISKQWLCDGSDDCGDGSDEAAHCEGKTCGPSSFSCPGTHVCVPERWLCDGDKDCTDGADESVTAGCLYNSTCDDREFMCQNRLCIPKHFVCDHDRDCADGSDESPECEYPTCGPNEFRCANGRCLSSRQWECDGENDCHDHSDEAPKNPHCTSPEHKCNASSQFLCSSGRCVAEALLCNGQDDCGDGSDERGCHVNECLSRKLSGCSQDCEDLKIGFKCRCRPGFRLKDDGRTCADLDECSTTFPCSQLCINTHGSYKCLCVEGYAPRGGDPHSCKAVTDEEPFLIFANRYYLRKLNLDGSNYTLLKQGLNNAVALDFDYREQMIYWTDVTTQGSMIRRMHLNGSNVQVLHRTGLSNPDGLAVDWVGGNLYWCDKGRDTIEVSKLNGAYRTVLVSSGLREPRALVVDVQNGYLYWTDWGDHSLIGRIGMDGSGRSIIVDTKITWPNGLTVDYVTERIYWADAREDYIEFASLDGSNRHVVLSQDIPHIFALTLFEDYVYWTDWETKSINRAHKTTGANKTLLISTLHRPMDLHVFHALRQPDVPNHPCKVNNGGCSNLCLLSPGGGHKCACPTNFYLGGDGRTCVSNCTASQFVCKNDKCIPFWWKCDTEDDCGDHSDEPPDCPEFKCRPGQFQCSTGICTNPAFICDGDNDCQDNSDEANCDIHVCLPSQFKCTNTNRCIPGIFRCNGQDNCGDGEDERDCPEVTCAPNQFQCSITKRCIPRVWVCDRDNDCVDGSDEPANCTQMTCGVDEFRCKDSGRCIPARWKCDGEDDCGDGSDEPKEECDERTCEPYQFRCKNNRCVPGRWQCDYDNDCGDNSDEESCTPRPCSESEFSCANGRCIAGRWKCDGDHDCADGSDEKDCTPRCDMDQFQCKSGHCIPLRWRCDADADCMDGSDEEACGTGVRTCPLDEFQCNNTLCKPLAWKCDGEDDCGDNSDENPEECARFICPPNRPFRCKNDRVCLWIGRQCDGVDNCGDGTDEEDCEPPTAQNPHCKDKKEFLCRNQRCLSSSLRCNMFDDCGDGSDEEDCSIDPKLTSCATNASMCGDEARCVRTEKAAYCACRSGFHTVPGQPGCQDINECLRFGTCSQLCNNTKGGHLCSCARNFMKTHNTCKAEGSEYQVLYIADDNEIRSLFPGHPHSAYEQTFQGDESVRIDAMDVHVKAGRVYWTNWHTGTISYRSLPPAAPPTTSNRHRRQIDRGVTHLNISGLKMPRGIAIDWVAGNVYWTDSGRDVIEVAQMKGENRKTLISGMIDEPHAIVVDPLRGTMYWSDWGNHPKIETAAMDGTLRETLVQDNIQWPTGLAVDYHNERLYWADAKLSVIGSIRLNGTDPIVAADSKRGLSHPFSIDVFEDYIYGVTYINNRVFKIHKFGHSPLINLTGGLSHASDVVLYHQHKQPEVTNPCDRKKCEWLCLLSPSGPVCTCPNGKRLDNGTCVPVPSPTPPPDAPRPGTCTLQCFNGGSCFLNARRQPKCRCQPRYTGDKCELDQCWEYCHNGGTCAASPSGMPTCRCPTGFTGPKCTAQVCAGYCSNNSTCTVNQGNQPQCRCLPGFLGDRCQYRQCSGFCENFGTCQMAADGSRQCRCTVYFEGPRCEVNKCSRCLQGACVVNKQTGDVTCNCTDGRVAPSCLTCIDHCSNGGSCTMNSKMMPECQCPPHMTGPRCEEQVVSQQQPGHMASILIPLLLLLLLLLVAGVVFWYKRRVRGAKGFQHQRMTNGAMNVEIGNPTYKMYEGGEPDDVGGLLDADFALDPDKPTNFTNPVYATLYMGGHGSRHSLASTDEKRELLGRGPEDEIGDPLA

B1: recombinant human connective tissue growth factor (rhCTGF) (ligand, UniProt P29279 27-349, looked up)
chain: QNCSGPCRCPDEPAPRCPAGVSLVLDGCGCCRVCAKQLGELCTERDPCDPHKGLFCHFGSPANRKIGVCTAKDGAPCIFGGTVYRSGESFQSSCKYQCTCLDGAVGCMPLCSMDVRLPSPDCPFPRRVKLPGKCCEEWVCDEPKDQTVVGPALAAYRLEDTFGPDPTMIRANCLVQTTEWSACSKTCGMGISTRVTNDNASCRLEKQSRLCMVRPCEADLEENIKKGKKCIRTPKISKPIKFELSGCTSMKTYRAKFCGVCTDGRCCTPHRTTTLPVEFKCPDGEVMKKNMMFIKTCACHYNCPGDNDIFESLYYRKMYGDMA
modifications: radioiodinated (125I; Iodobeads or chloramine-T) when used as tracer; unlabeled when used as competitor
notes: mature; Form set to mature because the protein was secreted and purified from conditioned medium
For the molecule B1, the “degradation of 125I-CTGF, control MG63 cells against cells treated with TGF-β for 48 hours” value in assay [1] was no less than 3 fold. For the same molecule, the values for the Kd in assay [2], in assay [3] and in assay [4] were roughly 1 nM, roughly 1 nM and roughly 0.137 nM, respectively. In assay [5], this molecule gave an IC50 of roughly 1 nM.

B2: lipoprotein lipase purified from bovine milk (enzyme, UniProt P11151 29-478, looked up)
chain: DRITGGKDFRDIESKFALRTPEDTAEDTCHLIPGVTESVANCHFNHSSKTFVVIHGWTVTGMYESWVPKLVAALYKREPDSNVIVVDWLSRAQQHYPVSAGYTKLVGQDVAKFMNWMADEFNYPLGNVHLLGYSLGAHAAGIAGSLTNKKVNRITGLDPAGPNFEYAEAPSRLSPDDADFVDVLHTFTRGSPGRSIGIQKPVGHVDIYPNGGTFQPGCNIGEALRVIAERGLGDVDQLVKCSHERSVHLFIDSLLNEENPSKAYRCNSKEAFEKGLCLSCRKNRCNNMGYEINKVRAKRSSKMYLKTRSQMPYKVFHYQVKIHFSGTESNTYTNQAFEISLYGTVAESENIPFTLPEVSTNKTYSFLLYTEVDIGELLMLKLKWISDSYFSWSNWWSSPGFDIGKIRVKAGETQKKVIFCSREKMSYLQKGKSPVIFVKCHDKSLNRKSG
notes: also called LpL
With B2, the binding result in assay [6] was “binds”.
